We go through one substance from publication doi:10.1101/2024.08.24.609485.

By stoichiometry N is commonly meant a count of units in the complex or per binding partner.

In the assay the target is GST-N-WASP-PRD (human) (UniProt O00401). Briefly: mass photometry.

“GST-N-WASP-PRD (from UniProt O00401 261-332) (domain or fragment)”: the stoichiometry N was 2.
